Experimental data reported in article PMC9352969 (The Journal of Biological Chemistry, 2022).

How the values were obtained:
[1] = molecular target: FtsQ, full-length (Escherichia coli divisome transmembrane protein) (Escherichia coli, UniProt P06136 1-276); assay: pull-down
[2] = molecular target: T1, FtsL, full-length (Escherichia coli divisome transmembrane protein) (Escherichia coli, UniProt P0AEN4 1-121); assay: pull-down
T1 sequence (looked up): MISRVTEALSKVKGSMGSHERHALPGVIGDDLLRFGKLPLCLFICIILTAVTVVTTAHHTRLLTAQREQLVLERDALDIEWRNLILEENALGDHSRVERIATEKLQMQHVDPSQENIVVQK

Chain of FtsQ, full-length (Escherichia coli divisome transmembrane protein) (P06136 whole entry): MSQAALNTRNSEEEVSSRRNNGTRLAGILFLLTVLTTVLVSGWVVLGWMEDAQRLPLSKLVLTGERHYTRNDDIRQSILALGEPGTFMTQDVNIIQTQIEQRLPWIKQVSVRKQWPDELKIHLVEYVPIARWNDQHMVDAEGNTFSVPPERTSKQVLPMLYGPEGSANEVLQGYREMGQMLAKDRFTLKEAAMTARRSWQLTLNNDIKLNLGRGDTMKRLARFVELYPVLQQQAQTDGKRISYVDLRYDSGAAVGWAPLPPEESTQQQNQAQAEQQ

B1: FtsB, full-length, His-tagged (Escherichia coli divisome transmembrane protein) (natural protein, UniProt P0A6S5 1-103, looked up)
chain: MGKLTLLLLAILVWLQYSLWFGKNGIHDYTRVNDDVAAQQATNAKLKARNDQLFAEIDDLNGGQEALEERARNELSMTRPGETFYRLVPDASKRAQSAGQNNR
binding result [1]: binds | binding result [2]: binds
